Measurements from PMC10123100, “Single-molecule visualization of stalled replication-fork rescue by the Escherichia coli Rep helicase” (Nucleic Acids Research, 2023).

Tests used:
[1] = biological target: dCas9 D10A;H840A (UniProt Q99ZW2); assay: single-molecule TIRF; details: 3'-biotin on strand 2, SPR: 25 mM Tris-HCl pH 7.6, 50 mM NaCl, 5 mM MgCl2, 0.25 mM DTT, 0.2 mM EDTA, 0.005% P20, 20 C, single-molecule: 25 mM Tris-HCl pH 7.9, 10 mM Mg acetate
[2] = biological target: DnaB (Escherichia coli) (UniProt P0ACB0); assay: SPR; details: cited from earlier work
[3] = biological target: DnaB helicase (Escherichia coli) (UniProt P0ACB0)
[4] = biological target: DnaB helicase (Escherichia coli) (UniProt P0ACB0); remark: listed apart in the source

Chain of DnaB helicase (Escherichia coli) (P0ACB0 whole entry): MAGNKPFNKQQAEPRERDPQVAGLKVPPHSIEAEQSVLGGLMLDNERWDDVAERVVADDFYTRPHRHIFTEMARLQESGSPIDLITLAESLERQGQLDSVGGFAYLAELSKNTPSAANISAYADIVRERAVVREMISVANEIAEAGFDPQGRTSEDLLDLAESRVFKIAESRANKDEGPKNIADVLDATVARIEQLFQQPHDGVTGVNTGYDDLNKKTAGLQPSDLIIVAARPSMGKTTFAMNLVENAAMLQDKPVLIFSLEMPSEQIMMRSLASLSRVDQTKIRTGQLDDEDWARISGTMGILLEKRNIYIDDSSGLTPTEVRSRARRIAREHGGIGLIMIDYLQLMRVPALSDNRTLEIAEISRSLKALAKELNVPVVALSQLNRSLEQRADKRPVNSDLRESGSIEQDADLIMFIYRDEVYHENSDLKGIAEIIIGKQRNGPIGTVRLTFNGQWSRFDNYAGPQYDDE
Chain of His6-Rep WT (P09980 whole entry): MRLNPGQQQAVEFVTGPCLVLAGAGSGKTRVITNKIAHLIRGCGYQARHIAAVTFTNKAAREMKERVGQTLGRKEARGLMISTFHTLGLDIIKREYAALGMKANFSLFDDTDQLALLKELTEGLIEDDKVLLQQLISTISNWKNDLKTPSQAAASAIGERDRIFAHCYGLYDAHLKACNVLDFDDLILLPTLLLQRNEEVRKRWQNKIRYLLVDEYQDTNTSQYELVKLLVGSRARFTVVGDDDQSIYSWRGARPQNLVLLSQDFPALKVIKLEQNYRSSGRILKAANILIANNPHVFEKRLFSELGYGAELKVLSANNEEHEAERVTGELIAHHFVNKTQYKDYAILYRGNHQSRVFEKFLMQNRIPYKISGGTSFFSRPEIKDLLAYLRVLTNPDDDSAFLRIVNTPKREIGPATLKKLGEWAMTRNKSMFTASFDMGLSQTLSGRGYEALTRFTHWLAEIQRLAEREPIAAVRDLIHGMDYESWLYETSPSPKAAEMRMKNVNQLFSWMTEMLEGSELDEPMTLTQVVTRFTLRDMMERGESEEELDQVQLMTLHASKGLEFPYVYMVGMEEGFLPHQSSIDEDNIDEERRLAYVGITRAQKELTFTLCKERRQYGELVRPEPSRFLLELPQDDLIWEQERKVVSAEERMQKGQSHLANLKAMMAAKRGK
Chain of DnaB (Escherichia coli) (P0ACB0 2-471): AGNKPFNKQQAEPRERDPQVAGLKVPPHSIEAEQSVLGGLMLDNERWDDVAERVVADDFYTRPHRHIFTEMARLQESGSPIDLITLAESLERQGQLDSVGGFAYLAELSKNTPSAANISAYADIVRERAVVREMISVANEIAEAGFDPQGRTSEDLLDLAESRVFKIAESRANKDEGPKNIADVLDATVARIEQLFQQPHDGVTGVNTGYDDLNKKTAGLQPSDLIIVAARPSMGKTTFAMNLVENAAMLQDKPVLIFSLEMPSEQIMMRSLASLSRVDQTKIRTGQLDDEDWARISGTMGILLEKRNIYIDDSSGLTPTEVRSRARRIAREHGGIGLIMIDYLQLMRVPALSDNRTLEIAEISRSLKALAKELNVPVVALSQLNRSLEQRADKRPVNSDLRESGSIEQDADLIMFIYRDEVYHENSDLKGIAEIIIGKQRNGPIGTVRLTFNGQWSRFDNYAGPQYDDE
Chain of His6-Rep ΔC33 (P09980 1-640, stated change not applied): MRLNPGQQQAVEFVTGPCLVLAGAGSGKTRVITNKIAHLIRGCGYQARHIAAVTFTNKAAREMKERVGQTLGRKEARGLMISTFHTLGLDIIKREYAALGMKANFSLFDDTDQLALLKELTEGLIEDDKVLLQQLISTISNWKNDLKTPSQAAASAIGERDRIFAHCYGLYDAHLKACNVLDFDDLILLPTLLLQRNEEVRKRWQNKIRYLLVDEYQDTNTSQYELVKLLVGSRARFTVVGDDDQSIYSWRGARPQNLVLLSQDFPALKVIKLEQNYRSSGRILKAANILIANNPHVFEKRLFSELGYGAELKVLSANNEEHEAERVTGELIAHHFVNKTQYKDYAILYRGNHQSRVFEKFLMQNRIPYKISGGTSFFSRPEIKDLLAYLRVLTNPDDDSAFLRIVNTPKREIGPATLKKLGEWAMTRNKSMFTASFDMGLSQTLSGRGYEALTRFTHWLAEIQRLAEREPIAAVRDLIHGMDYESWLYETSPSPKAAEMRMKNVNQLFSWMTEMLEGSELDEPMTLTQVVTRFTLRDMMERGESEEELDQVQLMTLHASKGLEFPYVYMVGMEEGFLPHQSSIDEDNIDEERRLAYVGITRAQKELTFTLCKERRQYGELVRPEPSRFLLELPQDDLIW
Chain of Rep (P09980 whole entry): as the sequence (P09980 whole entry) above

Substance	binding signal (min (mean binding lifetime)) [1]	also measured
CACATGCTATGAGCTGTTGCAATCTCTCGTACAATTAATAGACTGGATGGTGGATGACAAAGCTCTACACTAGATACTCACAC (double strand) [gRNA40 / 83-mer target]	1	
Rep (from UniProt P09980)		Kd [2]: 90 nM
His6-Rep WT (from UniProt P09980 1-673) (enzyme)		mean total DNA product length after 3 min in the single-molecule stalled rolling-circle replication assay (template pre-incubated with the dCas9-cgRNA1-Atto647 roadblock), 20 nM Rep WT [3]: 65 kbp; replication efficiency in the single-molecule stalled rolling-circle replication assay (dCas9-cgRNA1-Atto647 roadblock), 20 nM Rep WT [4]: 2%
CACATGCTATGAGCTGTTGCAATCTCTCGTACAATTAATAGACTGGATGGTGGATGACAAAGCTCTACACTAGATACTCACAC (double strand) [gRNA80 / 83-mer target]	8.6	
His6-Rep ΔC33 (from UniProt P09980 1-640) (domain or fragment)		mean total DNA product length after 3 min in the single-molecule stalled rolling-circle replication assay (template pre-incubated with the dCas9-cgRNA1-Atto647 roadblock), 20 nM Rep ΔC33 [3]: 2 kbp
CACATGCTATGAGCTGTTGCAATCTCTCGTACAATTAATAGACTGGATGGTGGATGACAAAGCTCTACACTAGATACTCACAC (double strand) [gRNA20 / 83-mer target]	1	
CACATGCTATGAGCTGTTGCAATCTCTCGTACAATTAATAGACTGGATGGTGGATGACAAAGCTCTACACTAGATACTCACAC (double strand) [gRNA60 / 83-mer target]	8.3	
